Experimental data: patent US20220387586A1 (Hoffmann-La Roche, published 2022)

T1: LAG3 on cells (recombinant CHO cells expressing Lag3) (human, UniProt P18627 29-525)
T1 sequence: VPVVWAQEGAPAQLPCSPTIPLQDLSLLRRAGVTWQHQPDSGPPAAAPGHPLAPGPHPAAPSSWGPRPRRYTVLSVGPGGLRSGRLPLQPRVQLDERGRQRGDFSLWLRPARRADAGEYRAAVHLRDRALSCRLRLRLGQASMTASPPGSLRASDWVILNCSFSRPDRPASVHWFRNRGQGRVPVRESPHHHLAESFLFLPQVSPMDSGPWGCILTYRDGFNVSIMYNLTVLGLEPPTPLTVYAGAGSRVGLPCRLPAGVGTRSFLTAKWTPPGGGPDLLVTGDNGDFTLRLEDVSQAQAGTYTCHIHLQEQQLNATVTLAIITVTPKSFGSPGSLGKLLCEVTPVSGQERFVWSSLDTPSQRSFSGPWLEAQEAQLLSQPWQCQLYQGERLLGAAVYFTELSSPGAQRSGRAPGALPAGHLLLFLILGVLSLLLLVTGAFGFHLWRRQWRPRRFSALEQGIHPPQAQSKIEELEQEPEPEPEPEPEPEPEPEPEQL

T2: LAG3 on PD1+LAG3+ human U2OS cells (Homo sapiens (Human), UniProt P18627 23-525)
T2 construct: also called cellular LAG3 (dimerization assay); not shown: subunit of the reporter enzyme fused to the cytosolic C-terminus
T2 sequence: T1 sequence

B1: PD1/LAG3 0927 (bispecific antibody, human IgG1, kappa, L234A L235A)
heavy 1: not shown
heavy 2: EVQLLESGGGLVQPGGSLRLSCAASGFIFDDYTMNWVRQAPGKGLEWVAVISWDGGGTYYTDSVKGRFTISRDDFKNTLYLQMNSLRAEDTAVYYCAKGLTDTTLYGSDYWGQGTLVTVSSASTKGPSVFPLAPSSKSTSGGTAALGCLVEDYFPEPVTVSWNSGALTSGVHTFPAVLQSSGLYSLSSVVTVPSSSLGTQTYICNVNHKPSNTKVDEKVEPKSCDKTHTCPPCPAPEAAGGPSVFLFPPKPKDTLMISRTPEVTCVVVDVSHEDPEVKFNWYVDGVEVHNAKTKPREEQYNSTYRVVSVLTVLHQDWLNGKEYKCKVSNKALGAPIEKTISKAKGQPREPQVCTLPPSRDELTKNQVSLSCAVKGFYPSDIAVEWESNGQPENNYKTTPPVLDSDGSFFLVSKLTVDKSRWQQGNVFSCSVMHEALHNHYTQKSLSLSPGK
light 1: EVQLLESGGGLVQPGGSLRLSCAASGFSFSSYTMSWVRQAPGKGLEWVATISGGGRDIYYPDSVKGRFTISRDNSKNTLYLQMNSLRAEDTAVYYCVLLTGRVYFALDSWGQGTLVTVSSASVAAPSVFIFPPSDEQLKSGTASVVCLLNNFYPREAKVQWKVDNALQSGNSQESVTEQDSKDSTYSLSSTLTLSKADYEKHKVYACEVTHQGLSSPVTKSFNRGEC
light 2: not shown
notes: 1+1 CrossMAb Vh-VL, knobs into holes, IgG1 PGLALA
B2: PD1/LAG3 0799 (bispecific antibody, human IgG1, kappa, L234A L235A)
heavy 1: not shown
heavy 2: EVQLVESGGGLVQPGGSLRLACAASGFTFSDYAMSWVRQAPGKGLEWVSGIDNSGYYTYYTDSVKGRFTISRDDVKNTLYLQMNSLRAEDTAVYLCTKTHSGLIVNDAFDIWGQGTMVTVSSASTKGPSVFPLAPSSKSTSGGTAALGCLVEDYFPEPVTVSWNSGALTSGVHTFPAVLQSSGLYSLSSVVTVPSSSLGTQTYICNVNHKPSNTKVDEKVEPKSCDKTHTCPPCPAPEAAGGPSVFLFPPKPKDTLMISRTPEVTCVVVDVSHEDPEVKFNWYVDGVEVHNAKTKPREEQYNSTYRVVSVLTVLHQDWLNGKEYKCKVSNKALGAPIEKTISKAKGQPREPQVCTLPPSRDELTKNQVSLSCAVKGFYPSDIAVEWESNGQPENNYKTTPPVLDSDGSFFLVSKLTVDKSRWQQGNVFSCSVMHEALHNHYTQKSLSLSPGK
light 1: B1 light 1
light 2: not shown
notes: as for B1

Experiments:
[1] = biological target: full-length human PD1 on cells (human, UniProt Q15116 25-288); test: cell-based or functional assay
[2] = biological target: T1, LAG3 on cells (recombinant CHO cells …); test: cell-based or functional assay
[3] = biological target: T1, LAG3 on cells (recombinant CHO cells …); test: cell ELISA on recombinant CHO cells expressing Lag3 (rel. EC50)
[4] = biological target: T3, PD1 on PD1+LAG3+ human U2OS cells (UniProt Q15116 25-288); test: cellular PD1/LAG3 dimerization assay on PD1+LAG3+ U2OS cells, chemoluminescence; the signal needs PD1 and LAG3 bound at once
Protocol: (§1) For this specific interaction, the cytosolic C-terminal ends of both receptors were individually fused to heterologous subunits of a reporter enzyme.
(§2) On the next day cell medium was discarded and replaced by fresh medium. Antibody or ligand dilutions were prepared and titrated amounts of indicated (bispecific) antibodies were added and incubated at 37° C. for 2 hours. Next, a substrate/buffer mix (e.g. PathHunterFlash detection reagent) was added and again incubated for 1h. For measuring chemoluminescence induced upon simultaneous binding and dimerization a Tecan infinite reader was used.

[5] = biological target: T2, LAG3 on PD1+LAG3+ human U2OS cells; test: as above
Protocol: as §1, §2

[6] = biological target: T3, PD1 on PD1+LAG3+ human U2OS cells; test: cellular PD1/LAG3 dimerization assay, 7500 PD1+LAG3+ U2OS cells a well, 20 h at 37 °C, chemoluminescence; the signal needs PD1 and LAG3 bound at once
Protocol: (§3) Next, assay plates were equilibrated to room temperature and a substrate/buffer mix (PathHunterFlash detection reagent, Discoverx) was added and again incubated for 4h. For measuring chemoluminescence induced upon simultaneous binding and dimerization a SpectraMax L plate reader (Molecular Devices) was used.

[7] = biological target: T2, LAG3 on PD1+LAG3+ human U2OS cells; test: as above
Protocol: as §3

T3 sequence (Q15116 25-288): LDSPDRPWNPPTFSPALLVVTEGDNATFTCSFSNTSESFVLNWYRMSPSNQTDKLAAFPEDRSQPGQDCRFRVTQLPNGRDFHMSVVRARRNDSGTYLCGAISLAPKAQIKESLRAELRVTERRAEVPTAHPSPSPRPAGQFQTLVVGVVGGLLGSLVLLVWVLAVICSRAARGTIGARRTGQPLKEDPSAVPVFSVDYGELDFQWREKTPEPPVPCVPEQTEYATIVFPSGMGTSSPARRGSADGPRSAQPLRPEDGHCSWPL
full-length human PD1 on cells, sequence (Q15116 25-288 limits assumed): as the sequence (Q15116 25-288) above

Binder | EC50 [nM], PD-1 & LAG-3 combo reporter assay (NFAT luciferase) [1] | EC50 [nM], PD-1 & LAG-3 combo reporter assay (NFAT luciferase) [2] | EC50 [3] | EC50 (read off the curve) [4] | EC50 (read off the curve) [5] | EC50 (read off the curve) [6] | EC50 (read off the curve) [7]
B1 | 3.1 nM | 3.1 nM | 0.23 nM | ~0.02 µg/mL | ~0.02 µg/mL | ~0.05 nM | ~0.05 nM
B2 |  |  | 0.2 nM | ~0.02 µg/mL | ~0.02 µg/mL |  | 
